Laboratory results: publication doi:10.1101/2023.03.30.534746

What was measured:
[1] = target: IRE1α LD 352LNYL355-GSGS mutant (human) (UniProt O75460); experiment: AUC
[2] = target: IRE1α LD 312TLPL315-GSGS mutant (human) (UniProt O75460); experiment: AUC

| Substance | stoichiometry N [1] | stoichiometry N [2] |
| --- | --- | --- |
| IRE1α LD 352LNYL355-GSGS mutant (from UniProt O75460 24-443) (domain or fragment) | 2 | – |
| IRE1α LD 312TLPL315-GSGS mutant (from UniProt O75460 24-443) (domain or fragment) | – | 2 |
